In the domain aggregation screens of Martell et al. (2025):

Assay: soluble fraction after stress (log2 fold change); higher = more stays soluble; pooled small domains, quantitative proteomics
Details: stress: 50 degC
Procedure, shortened: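 The measure of aggregation propensity here is the base-two logarithm of the fold change in the soluble amount of each protein after stress. A higher value means more of that protein stays in solution. Stress was applied at 50°C to pooled libraries of small protein domains, read out by high-throughput quantitative proteomics.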
In the case of “HMNPNEVQIPDLVNKTEDEAEQILKDLKLKLVVKSEEYNENIEKGKIISQDPPYQENYTIKEHSEISIVIS”, the “soluble fraction (log2)” value is reported as 0.42. For “HMNPLLSAYLAEVERGLQGLTAGRRRLVLRELEAHLLDEAEARGLLTEEDMRALLMEKEPPERLAQEIAQ”, the “soluble fraction (log2)” value was -0.0936. In the case of “HMNQPRQRKVIFELIDERNALERVLMHFAHLEKQVEKIDERKYQVTLYYDKEDETEILIRVLSFG”, the “soluble fraction (log2)” value is reported as -1.15. With “HMRIWTISDLYKNVEDKKVSLAVFSEDNDSNKVNVLDINGEEHSVNLLKADLPTLVDLFRKNDVRFAVRSN” the “soluble fraction (log2)” value was 0.12. For “HMINKQPKDYEYFLEKWHFTQTEKHQLHNLILKLNIRYPNKDFLKITENLDNGKLVLKKLEERLSKT”, the “soluble fraction (log2)” value was -1.05. With “HMAPAGGITRQDLFAWGLMGGEGSREKRQQLKKSLGLPSHLGTSGFLDALNLIATRDQVEALLHK” the “soluble fraction (log2)” value was -0.15. In the case of “HMPPNHADLKSSGLKATLPRLKILEIFQNSQVRHLSAEDVYKLLLAENLDVGLATVYRVLTQFEQAGL”, the “soluble fraction (log2)” value is reported as -0.475. With “HMRKTYHVDAYQDDKWWVLQVQEMPNAISQVKSLDQADEWIREAINIVSNEPEDSFDVVIIPV” the “soluble fraction (log2)” value was -0.612. In the case of “HMFAGEWKQDASGWWYQNDDGSFTRNGWQNISGKQYYFNENGYMLHDTTTPDGKQVGSDGSLV”, the “soluble fraction (log2)” value is reported as 0.0661. In the case of “HMSSHNIALDQDVVVTQLKGKVYLVAADGSQKQLAEGDILPKDAVLITPEGASFKGGNQTFTLS”, the “soluble fraction (log2)” value is reported as 0.17. For “HMGSQLYTLEVEADEKISLIENNPLLIQKIYLKDNNLFSYKIASSSKTEIASIEKELEKNPSIKRLETA”, the “soluble fraction (log2)” value was -0.181. In the case of “HMSAISSARKEKIIEYLTDHGSARSSEIAEYVDLRPSRVRDYLGELVREDIVVAEGANRNRTYRLK”, the “soluble fraction (log2)” value is reported as 0.0293. For “HMLNMTLGDRIRSRREELRMSQEELATRLGYKSRSTIAKIESGENDLTQSKIVAFAEALSTTARWLLDY”, the “soluble fraction (log2)” value was -1.04. With “HMFELTVGTPIRVIREPYFGKLGTVTELPAQLMVVESGTEVRVLKAKIEGEGEVLVPRANVEIIATG” the “soluble fraction (log2)” value was -0.0828. In the case of “HMHQALLEQSAEHAQQVKAYELLLTAERALDEENTEAFLSAMKSLKPLAENLDAKGKALYQELLPFVTEA”, the “soluble fraction (log2)” value is reported as -0.0088. For “HMSYIGEEKAKSIAVSNVKGAGTNNVVKVEFDYDDGRAVYEVKVVYNAMEYEFEIDASNGKILSRDAESIY”, the “soluble fraction (log2)” value was -0.309. For “HMGDTLEIVVIYSNKQKAEEAVNNLKGKFEDLGYNFAIITVDTSKITQLAMESSIQYIEFPKSFYFSD”, the “soluble fraction (log2)” value was -1.64. For “HMREEIESVYKTLAVTEIPYIARGNSARLGSGIQTVYDFYRMEGMQVSKILGRNGSVLWLELHG”, the “soluble fraction (log2)” value was 0.126. With “HMTLREQISALIKQGKLTQAKLARETGVNGGALSAWINGKYTGNVETVEEPIKHWMALNERK” the “soluble fraction (log2)” value was 0.373. With “HMDSEKVLTNLKEELVLQLSNIEPYGYVPSQYWYSKVQRVQSVQELGKYVDGDLEAFVMKYAEDWESQK” the “soluble fraction (log2)” value was -0.191. In the case of “HMEANAYFDAYPDVAAEWARLSGSDEGKATLSAIGVTTPQQFAQYHYTTFGSKENRNAPVGYTP”, the “soluble fraction (log2)” value is reported as 0.0756. For “HMINNINKLPETQFIKLFANIFENSQFIAVALYKKKGDGFSDFKDLINKIMDIFENTTKEKKLKILNA”, the “soluble fraction (log2)” value was -0.0982. For “HMGSQQIEEGMRRLVASGALRPGASVPSVRDLARDLQVNPATVVRAYQRLVDAGLLVVRRGEGTFVAE”, the “soluble fraction (log2)” value was -0.588. With “HMLSSREEKILNYLNEHQIITRKKAQELLETSQSTAGRVLKIMVDNGLIVQYGGSRSIWYELIK” the “soluble fraction (log2)” value was -0.939. With “HMDGNVPSVEGKPLSGAKYILETYGYKTGTVTEVNSEDVPAGIVISQNPARGTTLANGGSVNLQVSLG” the “soluble fraction (log2)” value was 0.321. In the case of “HMGVGIEALAVEVDRIRQVLTGGGALSDIQLFSQLKALGEVKTALSSMTDPRARELEKRVAQLLEASLRT”, the “soluble fraction (log2)” value is reported as -0.0594. With “HMFDFMVLGQAIKKARESKEMTREQLAEILDVAPRHIQSIENEGQYPSFPLFIRLVTMFNISVDQY” the “soluble fraction (log2)” value was -1.92. For “HMLPYGDRRRHTDNTISRIRELAAALDDSGIADRLNQDGYVTPEGKPFTYAGVRWIRYKYDISGPYERN”, the “soluble fraction (log2)” value was -1.5. With “HMNIIMLGEFIKEQRIKRKMTQEYLASELGISRPTYSQIELGTRELTIPEARKMAAIFNISLEDFLAEKE” the “soluble fraction (log2)” value was -0.604. In the case of “HMLTEERLQIITDTVNSRSSVTIAELSRILDVSPSTVKRDLNILAEAGKITKVRGGAIALGE”, the “soluble fraction (log2)” value is reported as -0.0232. With “HMKRLQEQAYDYLKELILSGKMIENEIYSETKLASEIGISRTPIRDALQRLSQDGFIDIIPSKGFRIH” the “soluble fraction (log2)” value was -0.134. With “HMNDTNEEAVLSIILKNPQATQGAIAKEVGASLSTVKRIMRNLQKSGKLRREGTNRNGSWVVTGQK” the “soluble fraction (log2)” value was 0.0846. For “HMGLVLIDSYNDIGSAKLITNKIRNLGLIFEENENKINVFAGPFEKNDINLKIDFLIRNGYTNAQLY”, the “soluble fraction (log2)” value was -2.48. For “HMDDPTVILFDPKNGQRKIVKWKAGLTLYSARRSAGISSAAEATIQRAGKSLSGRTATALEPGDVIRW”, the “soluble fraction (log2)” value was -0.953. With “HMKLKHANGNHPLTQQEKQNMIEEAAKHYGDYMTALGFDWKQDPNSSDTPMRVAKAFVNDLAEGVY” the “soluble fraction (log2)” value was 0.0454. In the case of “HMVGEPEPIRYSRFLDEMKSGKLDSVVIQGDTILGVRKDKSQFKTVNPETDYSALIGALDKAGVGIEGRA”, the “soluble fraction (log2)” value is reported as 0.146. With “HMAPTGTDRQTPHTRDELYLVLSGTGTFVNGDARHPFGPGDALFVPAGAEHRFEDFSDDFRTWVVFYGAEG” the “soluble fraction (log2)” value was -0.162. With “HMDAYSYFIRTYPLVDDPLIGDIRRIFAETHDGNPAGDADVRHILWRLLFERELYPTLDEATADWY” the “soluble fraction (log2)” value was -2.54.
